Patent US20190352387A1 (Chugai, published 2019)

T1: Recombinant mouse sclerostin (mouse, UniProt Q99P68 24-211)
T1 sequence: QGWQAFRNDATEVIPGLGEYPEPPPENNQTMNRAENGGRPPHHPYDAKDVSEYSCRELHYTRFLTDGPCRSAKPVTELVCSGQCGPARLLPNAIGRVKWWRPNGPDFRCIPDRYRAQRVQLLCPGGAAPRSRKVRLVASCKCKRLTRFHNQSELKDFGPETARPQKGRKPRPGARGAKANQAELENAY


Columns and labels:
[1] = target: T1, Recombinant mouse sclerostin; test: cell-based or functional assay
[2] = target: T1, Recombinant mouse sclerostin; test: cell-based or functional assay; remark: listed apart in the source
[3] = target: T1, Recombinant mouse sclerostin; test: SPR (Biacore T200), 37 C, dissociation at pH 5.8 of complex formed at pH 7.4
Protocol: The affinity of anti-sclerostin variants binding to human, cynomolgus monkey (cyno), rat, or mouse sclerostin at pH 7.4 and pH 5.8 were determined at 37 degrees C. using Biacore T200 instrument (GE Healthcare). Anti-human Fc (GE Healthcare) was immobilized onto all flow cells of a CM4 sensor chip using amine coupling kit (GE Healthcare). All antibodies and analytes were prepared in ACES pH7.4 or pH 5.8 buffer containing 20 mM ACES, 150 mM NaCl, 1.2 mM CaCl₂, 0.05% Tween 20, 0.005% NaN₃. Each antibody was captured onto the sensor surface by anti-human Fc. […] Sensor surface was regenerated each cycle with 3M MgCl₂.
The pH dependent interaction assessment was determined by a modified Biacore assay. Briefly, an additional dissociation phase at pH5.8 was integrated into the Biacore assay immediately after dissociation phase at pH7.4. This is to assess the pH-dependent dissociation between antibody and antigen from the complexes formed at pH7.4. The dissociation rate at pH5.8 buffer was determined by processing and fitting data using Scrubber 2.0 (BioLogic Software) curve fitting software.

Row | Binder | IC50 (read off the curve); Wnt1-induced TCF/LEF luciferase reporter in HEK293T cells, % Inhibition of mouse SOST [1] [µg/mL] | MFI of pHrodo-Red-labelled mouse sclerostin taken up into MDCK cells expressing human Fc gamma receptor IIB and human FcRn (flow cytometry) [2] [MFI] | koff [3] [s⁻¹]
1 | mabB//mabA_pH3-BS01 (bispecific antibody, human IgG1, kappa) heavy 1: QVQLVQSGAEVKKPGASVKVSCKVSGFPIKHHFQHWVRQAPGKGLEWMGWSDPEIGDTEYASKFQGRVTMTEDTSTDTAYMELSSLRSEDTAVYYCATGHTTYKFDFWGQGTTVTVSSASTKGPSVFPLAPSSRSTSESTAALGCLVKDYFPEPVTVSWNSGALTSGVHTFPAVLQSSGLYSLSSVVTVPSSSLGTKTYTCNVDHKPSNTKVDKRVEPKSCDKTHTCPPCPAPELLGGPSVFLFPPKPKDTLMISRTPEVTCVVVDVSQEDPEVQFNWYVDGVEVHNAKTKPREEQFNSTYRVVSVLTVLHQDWLNGKEYKCKVSNKGLPSSIEKTISKAKGQPREPQVYTLPPSREEMTKNQVSLTCLVKGFYPSDIAVEWESNGQPENNYKTTPPYLDSDGSFFLYSKLTVDKSRWQQGNVFSCSVMHEALHNHYTQESLSLSP light 1: DIQMTQSPSSLSASVGDRVTITCKASQDVHTAVAWYQQKPGKAPKLLIYWASTRWTGVPSRFSGSGSGTDFTLTISSLQPEDFATYYCQQYSDYHWTFGGGTKVEIKRTVAAPSVFIFPPSDEQLKSGTASVVCLLNNFYPREAKVQWKVDNALQSGNSQESVTEQDSKDSTYSLSSTLTLSKADYEKHKVYACEVTHQGLSSPVTKSFNRGEC heavy 2: EVQLVQSGAEVKKPGASVKVSCKASGYTFTDYNMHWVRQAPGQGLEWMGEINPHSGHAGYNQKFKGRVTMTTDTSTSTAYMELRSLRSDDTAVYYCARLHYDDIHDDWYFDVWGQGTTVTVSSASTKGPSVFPLAPSSRSTSESTAALGCLVKDYFPEPVTVSWNSGALTSGVHTFPAVLQSSGLYSLSSVVTVPSSSLGTKTYTCNVDHKPSNTKVDKRVEPKSCDKTHTCPPCPAPELLGGPSVFLFPPKPKDTLMISRTPEVTCVVVDVSQEDPEVQFNWYVDGVEVHNAKTKPREEQFNSTYRVVSVLTVLHQDWLNGKEYKCKVSNKGLPSSIEKTISKAKGQPREPQVYTLPPSRKEMTKNQVSLTCLVKGFYPSDIAVEWESNGQPENNYKTTPPYLDSDGSFFLYSKLTVDKSRWQQGNVFSCSVMHEALHNHYTQKSLSLSP light 2: not shown | ~10 | 2130 | –
2 | mabB//mabA_NpH3-BS01 (bispecific antibody, human IgG1, kappa) heavy 1: QVQLVQSGAEVKKPGASVKVSCKVSGFPIKHHFQHWVRQAPGKGLEWMGWSDPEIGDTEYASKFQGRVTMTEDTSTDTAYMELSSLRSEDTAVYYCATGDTTYKFDFWGQGTTVTVSSASTKGPSVFPLAPSSRSTSESTAALGCLVKDYFPEPVTVSWNSGALTSGVHTFPAVLQSSGLYSLSSVVTVPSSSLGTKTYTCNVDHKPSNTKVDKRVEPKSCDKTHTCPPCPAPELLGGPSVFLFPPKPKDTLMISRTPEVTCVVVDVSQEDPEVQFNWYVDGVEVHNAKTKPREEQFNSTYRVVSVLTVLHQDWLNGKEYKCKVSNKGLPSSIEKTISKAKGQPREPQVYTLPPSREEMTKNQVSLTCLVKGFYPSDIAVEWESNGQPENNYKTTPPYLDSDGSFFLYSKLTVDKSRWQQGNVFSCSVMHEALHNHYTQESLSLSP light 1: DIQMTQSPSSLSASVGDRVTITCKASQDVHTAVAWYQQKPGKAPKLLIYWASTRWTGVPSRFSGSGSGTDFTLTISSLQPEDFATYYCQQYHDYPWTFGGGTKVEIKRTVAAPSVFIFPPSDEQLKSGTASVVCLLNNFYPREAKVQWKVDNALQSGNSQESVTEQDSKDSTYSLSSTLTLSKADYEKHKVYACEVTHQGLSSPVTKSFNRGEC heavy 2: EVQLVQSGAEVKKPGASVKVSCKASGYTFTDYNMHWVRQAPGQGLEWMGEINPNSGGAGYNQKFKGRVTMTTDTSTSTAYMELRSLRSDDTAVYYCARLGYDDIYDDWYFDVWGQGTTVTVSSASTKGPSVFPLAPSSRSTSESTAALGCLVKDYFPEPVTVSWNSGALTSGVHTFPAVLQSSGLYSLSSVVTVPSSSLGTKTYTCNVDHKPSNTKVDKRVEPKSCDKTHTCPPCPAPELLGGPSVFLFPPKPKDTLMISRTPEVTCVVVDVSQEDPEVQFNWYVDGVEVHNAKTKPREEQFNSTYRVVSVLTVLHQDWLNGKEYKCKVSNKGLPSSIEKTISKAKGQPREPQVYTLPPSRKEMTKNQVSLTCLVKGFYPSDIAVEWESNGQPENNYKTTPPYLDSDGSFFLYSKLTVDKSRWQQGNVFSCSVMHEALHNHYTQKSLSLSP light 2: not shown | – | 653 | –
3 | mabB//mabA_pH1-BS01 (bispecific antibody, human IgG1, kappa) heavy 1: QVQLVQSGAEVKKPGASVKVSCKVSGFPIKHHFQHWVRQAPGKGLEWMGWSDPEIGDTEYASKFQGRVTMTEDTSTDTAYMELSSLRSEDTAVYYCATGDTTYKFDFWGQGTTVTVSSASTKGPSVFPLAPSSRSTSESTAALGCLVKDYFPEPVTVSWNSGALTSGVHTFPAVLQSSGLYSLSSVVTVPSSSLGTKTYTCNVDHKPSNTKVDKRVEPKSCDKTHTCPPCPAPELLGGPSVFLFPPKPKDTLMISRTPEVTCVVVDVSQEDPEVQFNWYVDGVEVHNAKTKPREEQFNSTYRVVSVLTVLHQDWLNGKEYKCKVSNKGLPSSIEKTISKAKGQPREPQVYTLPPSREEMTKNQVSLTCLVKGFYPSDIAVEWESNGQPENNYKTTPPYLDSDGSFFLYSKLTVDKSRWQQGNVFSCSVMHEALHNHYTQESLSLSP light 1: DIQMTQSPSSLSASVGDRVTITCKASQDVHTAVAWYQQKPGKAPKLLIYWASTRWTGVPSRFSGSGSGTDFTLTISSLQPEDFATYYCQQYSDYHWTFGGGTKVEIKRTVAAPSVFIFPPSDEQLKSGTASVVCLLNNFYPREAKVQWKVDNALQSGNSQESVTEQDSKDSTYSLSSTLTLSKADYEKHKVYACEVTHQGLSSPVTKSFNRGEC heavy 2: EVQLVQSGAEVKKPGASVKVSCKASGYTFTDYNMHWVRQAPGQGLEWMGEINPHSGHAGYNQKFKGRVTMTTDTSTSTAYMELRSLRSDDTAVYYCARLHYDDIHDDWYFDVWGQGTTVTVSSASTKGPSVFPLAPSSRSTSESTAALGCLVKDYFPEPVTVSWNSGALTSGVHTFPAVLQSSGLYSLSSVVTVPSSSLGTKTYTCNVDHKPSNTKVDKRVEPKSCDKTHTCPPCPAPELLGGPSVFLFPPKPKDTLMISRTPEVTCVVVDVSQEDPEVQFNWYVDGVEVHNAKTKPREEQFNSTYRVVSVLTVLHQDWLNGKEYKCKVSNKGLPSSIEKTISKAKGQPREPQVYTLPPSRKEMTKNQVSLTCLVKGFYPSDIAVEWESNGQPENNYKTTPPYLDSDGSFFLYSKLTVDKSRWQQGNVFSCSVMHEALHNHYTQKSLSLSP light 2: not shown | ~8 | 2430 | –
4 | mabA_NpH3-SG2 (antibody, human IgG2, kappa, V domains shown) VH: EVQLVQSGAEVKKPGASVKVSCKASGYTFTDYNMHWVRQAPGQGLEWMGEINPNSGGAGYNQKFKGRVTMTTDTSTSTAYMELRSLRSDDTAVYYCARLGYDDIYDDWYFDVWGQGTTVTVSS VL: DIQMTQSPSSLSASVGDRVTITCRASQDISNYLNWYQQKPGKAPKLLIYYHSRLLSGVPSRFSGSGSGTDFTLTISSLQPEDFATYYCHQGDTLPYTFGGGTKVEIKR | – | 561 | –
5 | mabB//mabA_pH3 (bispecific antibody, V domains shown, Biparatopic) VH 1: QVQLVQSGAEVKKPGASVKVSCKVSGFPIKHHFQHWVRQAPGKGLEWMGWSDPEIGDTEYASKFQGRVTMTEDTSTDTAYMELSSLRSEDTAVYYCATGHTTYKFDFWGQGTTVTVSS VL 1: DIQMTQSPSSLSASVGDRVTITCKASQDVHTAVAWYQQKPGKAPKLLIYWASTRWTGVPSRFSGSGSGTDFTLTISSLQPEDFATYYCQQYSDYHWTFGGGTKVEIK VH 2: EVQLVQSGAEVKKPGASVKVSCKASGYTFTDYNMHWVRQAPGQGLEWMGEINPHSGHAGYNQKFKGRVTMTTDTSTSTAYMELRSLRSDDTAVYYCARLHYDDIHDDWYFDVWGQGTTVTVSS VL 2: DIQMTQSPSSLSASVGDRVTITCRASHDIHNYLNWYQQKPGKAPKLLIYYTSRLLSGVPSRFSGSGSGTDFTLTISSLQPEDFATYYCQQGDTLPYTFGGGTKVEIK | – | – | 0.0516
6 | mabA_pH3 (antibody, V domains shown) VH: EVQLVQSGAEVKKPGASVKVSCKASGYTFTDYNMHWVRQAPGQGLEWMGEINPHSGHAGYNQKFKGRVTMTTDTSTSTAYMELRSLRSDDTAVYYCARLHYDDIHDDWYFDVWGQGTTVTVSS VL: DIQMTQSPSSLSASVGDRVTITCRASHDISNYLNWYQQKPGKAPKLLIYYTSRLLSGVPSRFSGSGSGTDFTLTISSLQPEDFATYYCQQGDTLPYTFGGGTKVEIK | – | – | 0.000932
7 | mabB//mabA_pH1 (bispecific antibody, V domains shown, Biparatopic) VH 1: QVQLVQSGAEVKKPGASVKVSCKVSGFPIKHHFQHWVRQAPGKGLEWMGWSDPEIGDTEYASKFQGRVTMTEDTSTDTAYMELSSLRSEDTAVYYCATGDTTYKFDFWGQGTTVTVSS VL 1: DIQMTQSPSSLSASVGDRVTITCKASQDVHTAVAWYQQKPGKAPKLLIYWASTRWTGVPSRFSGSGSGTDFTLTISSLQPEDFATYYCQQYSDYHWTFGGGTKVEIK VH 2: EVQLVQSGAEVKKPGASVKVSCKASGYTFTDYNMHWVRQAPGQGLEWMGEINPHSGHAGYNQKFKGRVTMTTDTSTSTAYMELRSLRSDDTAVYYCARLHYDDIHDDWYFDVWGQGTTVTVSS VL 2: DIQMTQSPSSLSASVGDRVTITCRASHDIHNYLNWYQQKPGKAPKLLIYYTSRLLSGVPSRFSGSGSGTDFTLTISSLQPEDFATYYCQQGDTLPYTFGGGTKVEIK | – | – | 0.0347
8 | mabB//mabA_pH2 (bispecific antibody, V domains shown, Biparatopic) VH 1: QVQLVQSGAEVKKPGASVKVSCKVSGFPIKHHFQHWVRQAPGKGLEWMGWSDPEIGDTEYASKFQGRVTMTEDTSTDTAYMELSSLRSEDTAVYYCATGHTTYKFDFWGQGTTVTVSS VL 1: DIQMTQSPSSLSASVGDRVTITCKASQDVHTAVAWYQQKPGKAPKLLIYWASTRWTGVPSRFSGSGSGTDFTLTISSLQPEDFATYYCQQYSDYHWTFGGGTKVEIK VH 2: EVQLVQSGAEVKKPGASVKVSCKASGYTFTDYNMHWVRQAPGQGLEWMGEINPHSGHAGYNQKFKGRVTMTTDTSTSTAYMELRSLRSDDTAVYYCARLHYDDIHDDWYFDVWGQGTTVTVSS VL 2: DIQMTQSPSSLSASVGDRVTITCRASHDISNYLNWYQQKPGKAPKLLIYYTSRLLSGVPSRFSGSGSGTDFTLTISSLQPEDFATYYCQQGDTLPYTFGGGTKVEIK | – | – | 0.0186
